# Data published in patent US20240350583A1, “COMPOSITION FOR PREVENTING OR TREATING FIBROTIC DISEASES, COMPRISING HAPLN1” (Chung Ang University Industry Academic Cooperation …, priority 2021, published 2024).
# “Also recorded” adds a separate entry of the source.
# B1: rhHAPLN1: recombinant human HAPLN1 protein of SEQ ID NO: 1 produced in CHO-K1 cells, stabilized in acetic acid buffer, sucrose, PS80, pH 5.0 (protein, listed as Homo sapiens)
# chain: MKSLLLLVLISICWADHLSDNYTLDHDRAIHIQAENGPHLLVEAEQAKVFSHRGGNVTLPCKFYRDPTAFGSGIHKIRIKWTKLTSDYLKEVDVFVSMGYHKKTYGGYQGRVFLKGGSDSDASLVITDLTLEDYGRYKCEVIEGLEDDTVVVALDLQGVVFPYFPRLGRYNLNFHEAQQACLDQDAVIASFDQLYDAWRGGLDWCNAGWLSDGSVQYPITKPREPCGGQNTVPGVRNYGFWDKDKSRYDVFCFTSNFNGRFYYLIHPTKLTYDEAVQACLNDGAQIAKVGQIFAAWKILGYDRCDAGWLADGSVRYPISRPRRRCSPTEAAVRFVGFPDKKHKLYGVYCFRAYN
# What was measured:
# [1] = system: human kidney renal tubule cell (Human Kidney 2, HK-2); test: Fibrosis prevention in HK-2 cells (simultaneous TGFβ1 and drug), αSMA western blot; format: cell-based; settings: rhHAPLN1 50 ng/ml simultaneously with TGF-β (5 ng/ml), 24 hours
# Method: (1) Human kidney renal tubule cells (HK-2) were seeded (1.0×10^5 cells/well) in a 6-well plate according to the experimental scheme of FIG. 6A and incubated in RPMI 1640 Medium (11875-093, Gibco) including 10% FBS for 24 hours in an incubator at 37° C. 5% CO2.
# (2) The plates were then washed several times with PBS and each well of the plate was simultaneously treated with TGF31 (5 ng/ml) and the composition of the present disclosure (rhHAPLN1 protein content of 0, 5, 10, 20, and 50 ng/ml) and pirfenidone 0.2 mg/mL (200 μg/mL) and incubated for 24 hours.
# (3) Each sample was then washed several times with ice-cold PBS, treated with radioimmunoprecipitation assay (RIPA) lysis and extraction buffer (Thermo Scientific) including protease and phosphatase inhibitors, scraped with a scraper, and transferred to an E-tube.
# (4) By centrifugation (12000 rpm, 20 minutes, 4° C.), only the supernatant was obtained, and bicinchoninic acid (BCA) assay was performed to obtain quantitative protein values.
# (5) After quantification using the obtained quantitative value, cooking was performed at 100° C. for 3 minutes and then stored in a −20° C. refrigerator.
# (6) Using a 4% to 15% precast acrylamide PAGE gel, proteins were loaded at 10 μg per lane and run (80V-20 minutes, 120V-1 hour 30 minutes). […]
# (11) After washing three times with TBST for 10 minutes each, the samples were detected by Chemidoc.
# [2] = system: bleomycin-induced pulmonary fibrosis (BIPF); test: Bleomycin-induced pulmonary fibrosis mouse model, prevention (inhalation from day 1); format: in vivo; settings: for Ashcroft score (normal 0, control 6.25): nebulized 1 hour once daily for 10 days from 1 day after bleomycin
# Method: The experimental animals used were 8-week-old female C57BL/6N (KBSI, Daejeon, Korea) mice, and were set as a normal control group (Normal, PBS) and two dose of administration groups (composition of the present disclosure including rhHAPLN1 protein). The water was changed every two days and the mice were allowed to eat ad libitum, and the mice were placed in one cage of four, and the temperature in the room was kept at 21° C. to 24° C. and the humidity at 40% to 60%, and the day and night cycles were 12 hours each.
# To establish a bleomycin-induced pulmonary fibrosis (PF) model, 8-week-old female C57BL/6N mice were used, and divided into 4 groups (Normal, Control, 0.0005% (w/w) rhHAPLN1, 0.0015% (w/w) rhHAPLN1), with 4 mice per group, and the IPF disease induction method was referred to the paper by Liu et al. (Methods in Molecular Biology 2017, DOI: 10.1007/978-1-4939-7113-8_2) (see FIG. 12A). Administration of bleomycin (Bleomycin sulfate from Streptomyces verticillus. B8416; Sigma-Aldrich Co.) to induce idiopathic pulmonary fibrosis (IPF) was performed using a 1 ml-syringe and an oral dosing needle (Oral Zonde Needle 0.9×50 mm; 20 Guage) was used to anesthetize the patient and then carefully instillated orally intratracheally in a single 25 μl dose at a concentration of 2 U/kg, followed by nebulization with fresh 10 ml phosphate-buffered saline (1×PBS, pH 7.4; Gibco Co.) added dropwise to a nebulizer to generate nebulization and be freely inhaled.
# Starting 1 day after bleomycin administration, the control was a mixture of 50 μl of a stock solution consisting of 20 mM Tris-HCl, 0.5 M NaCl, pH 8.0, 50% glycerol and 10 ml PBS (1×, pH 7.4, Gibco Co.) solution, while the two groups for the compositions of the present disclosure were treated with 50 μl of rhHAPLN1 stock solution at a rhHAPLN1 weight ratio concentration of 0.0005% (w/w), in other words, 5,000 ng/ml, and 0.0015% (w/w), in other words, 15,000 ng/ml, respectively, were mixed in 10 ml PBS (1×, pH 7.4, Gibco Co.) and administered to each group once a day for 1 hour by nebulization via the nebulizer described above. The weight of each experimental animal was measured every 2 days to confirm that there was no change in weight, and a mass dosing system and aerosol chamber (Data Science International Co.) were used to generate the mist. […]
# Next, three tissue slides were prepared per mouse by cutting the middle portion of the left large lobe of the mouse, and three sections were photographed randomly on one slide, and then, for a total of nine sections, the stained darker part was distinguished from the unstained white part, and the area of the stained darker part was measured using Image J software, and each figure obtained was averaged to obtain an average value per mouse. […]
molecule,measurement,setting,value
B1,"fibrosis prevention (αSMA) compared to pirfenidone at 200 μg/mL (FIG. 6B, FIG. 6C)",[1],superior fibrosis prevention action compared to pirfenidone; also recorded: significantly higher
same,fibrosis prevention efficacy (αSMA) compared to composition that does not include rhHAPLN1 protein (FIG. 6C),[1],superior fibrosis prevention efficacy
same,"Ashcroft score (normal 0, control 6.25)","[2]; composition 1, rhHAPLN1 0.0005% (w/w)",5.25
same,"Ashcroft score (normal 0, control 6.25)","[2]; composition 2, rhHAPLN1 0.0015% (w/w)",0.5
same,H&E lung tissue form (FIG. 12B),[2]; rhHAPLN1 0.0015% (w/w),quite similar to that of the normal group
same,average area of dark (fibrotic) H&E-stained lung area compared to control (FIG. 12C),[2]; rhHAPLN1 0.0015% (w/w),reduced to be quite close to the normal group
